In paper PMC10502012 one finds Kd data, which are given here for four substances.

The target of test [1] is chicken PHT1 (purified, wild type) (chicken). The experiment in a line: thermal shift (nanoDSF); concentration-dependent thermal shift of PHT1 with dipeptides; KD fitted by a modified Hall's method. (In general: DSF heats the sample and reads unfolding from a dye or from intrinsic fluorescence.)
For test [2] the target is unchanged. The experiment in a line: thermal shift (nanoDSF); TASL peptide titration: PHT1 with eleven 2-fold peptide dilutions from 100 µM; gel filtration buffer with 5% DMSO; KD fitted by a modified Hall's method.

In general, Kd refers to the concentration at which binding is half-saturated.

Regarding Arginine-Phenylalanine dipeptide, in test [1], the Kd was determined as 73 µM.

Consider Lysine-Valine dipeptide, for which the Kd in test [1] is 63 µM. On to “TASL peptide with a length of 14 residues”, for which the Kd in test [2] is 0.4 µM.

Take TASL_(1-13) peptide: in test [2], the Kd came to 0.36 µM.
